We go through eleven molecules from patent US20170174769A1 (Regeneron, published 2017).

For assay [1], the target named is M. fascicularis KLB and human FGFR1c co-expressed on HEK293/MfKLB/hFGFR1c/SRE-Luc cells (M. fascicularis; human, UniProt A0A2K5WB58 1-1044). Briefly: cell-based or functional assay.
Assay [2] concerns the target T1, full-length human FGFR1c on HEK293/hFGFR1c/SRE-luc cells (human, UniProt P11362 22-822).
T1 construct: amino acids 1-733 of NP_075593
The assay can be described thus: FACS on stable HEK293 cells. The method, then: (§1) To determine binding specificity of the monoclonal anti-KLB/FGFR1c antibodies, the antibodies were tested in a fluorescence-activated cell sorting (FACS) binding assay to cell lines expressing human FGFR1c, human KLB, and both human FGFR1c and human KLB. HEK293 cell lines were generated that stably express full-length human FGFR1c (hFGFR1c; SEQ ID NO:433) or full-length human KLB (hKLB; SEQ ID NO:434) or both human FGFR1c and human KLB, along with a luciferase reporter [SRE (serum response element)-luciferase, SA Bioscience, #CLS-010L]. The resulting cell lines, referred to as HEK293/hFGFR1c/SRE-luc, HEK293/hKLB/SRE-luc, and HEK293/hKLB/hFGFR1c/SRE-luc, respectively, were maintained in DMEM supplemented with 10% FBS, NEAA, penicillin/streptomycin, 1 μg/mL puromycin and […] hygromycin B, 1 μg/mL puromycin and 500 μg/mL G418, or all three antibiotics.
(§2) For the FACS analysis, HEK293 parental, HEK293/hFGFR1c/SRE-luc, HEK293/hKLB/SRE-luc, and HEK293/hKLB/hFGFR1c/SRE-luc cells were dissociated and plated onto 96-well v-bottom plates at 5 x 10⁵ cells/well in PBS containing 1% FBS. […] Cells were filtered and subsequently analyzed on a Hypercyte Flow Cytometer (Intellicyt Corp.). Unstained and secondary antibody alone controls were also tested for binding to all cell lines. The results were analyzed using FlowJo version 9.52 software and geometric mean (Geom. Mean) of fluorescence for viable cells was determined. Geom. mean of fluorescence for each antibody was then normalized to Geom. mean of unstained cells to obtain relative binding of antibody (binding ratios) per each cell type.

Assay [3] addresses T2, full-length human KLB on HEK293/hKLB/SRE-luc cells (human, UniProt Q86Z14 1-1044).
T2 construct: amino acids 1-1044 of NP_783864.1
T2 sequence: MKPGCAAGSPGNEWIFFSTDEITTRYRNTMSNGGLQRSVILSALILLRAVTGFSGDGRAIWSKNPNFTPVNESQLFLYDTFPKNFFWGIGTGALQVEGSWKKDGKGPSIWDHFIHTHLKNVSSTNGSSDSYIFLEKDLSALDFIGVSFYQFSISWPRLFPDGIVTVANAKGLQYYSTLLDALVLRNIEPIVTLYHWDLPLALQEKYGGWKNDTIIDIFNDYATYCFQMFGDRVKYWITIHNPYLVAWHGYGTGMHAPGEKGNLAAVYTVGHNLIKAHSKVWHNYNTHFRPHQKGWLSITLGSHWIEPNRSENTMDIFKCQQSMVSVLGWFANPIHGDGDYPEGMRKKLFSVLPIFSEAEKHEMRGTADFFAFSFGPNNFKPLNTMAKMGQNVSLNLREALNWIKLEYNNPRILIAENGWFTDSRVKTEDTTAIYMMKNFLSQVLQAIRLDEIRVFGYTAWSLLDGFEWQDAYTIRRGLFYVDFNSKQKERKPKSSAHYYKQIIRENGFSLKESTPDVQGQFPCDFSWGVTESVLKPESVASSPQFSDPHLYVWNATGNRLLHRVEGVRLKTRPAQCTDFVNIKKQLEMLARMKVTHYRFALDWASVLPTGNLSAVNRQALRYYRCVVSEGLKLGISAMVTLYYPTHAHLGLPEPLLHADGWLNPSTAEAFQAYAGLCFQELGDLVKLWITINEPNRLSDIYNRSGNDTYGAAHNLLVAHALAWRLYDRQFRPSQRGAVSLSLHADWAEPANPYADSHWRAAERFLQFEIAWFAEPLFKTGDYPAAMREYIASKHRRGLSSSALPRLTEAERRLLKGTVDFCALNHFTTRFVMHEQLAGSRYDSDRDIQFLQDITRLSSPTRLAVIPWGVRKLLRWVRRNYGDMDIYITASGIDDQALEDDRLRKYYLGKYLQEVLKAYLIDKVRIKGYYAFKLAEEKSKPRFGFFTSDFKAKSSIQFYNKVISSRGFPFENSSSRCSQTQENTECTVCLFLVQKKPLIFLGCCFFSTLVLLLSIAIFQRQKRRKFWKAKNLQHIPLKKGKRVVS
The assay can be described thus: FACS on stable HEK293 cells. Here is the method: as §1, §2

Assay [4] addresses T3, human KLB and human FGFR1c co-expressed on HEK293/hKLB/hFGFR1c/SRE-luc cells (human, UniProt Q86Z14 1-1044; P11362 22-822).
T3 construct: two receptors co-expressed on one cell line; also called KLB/FGFR1c coreceptor; FGF21R
Briefly: FACS on stable HEK293 cells. The method, then: as §1, §2

T1 sequence (P11362 other isoform, or with tags, fused parts or gaps limits assumed): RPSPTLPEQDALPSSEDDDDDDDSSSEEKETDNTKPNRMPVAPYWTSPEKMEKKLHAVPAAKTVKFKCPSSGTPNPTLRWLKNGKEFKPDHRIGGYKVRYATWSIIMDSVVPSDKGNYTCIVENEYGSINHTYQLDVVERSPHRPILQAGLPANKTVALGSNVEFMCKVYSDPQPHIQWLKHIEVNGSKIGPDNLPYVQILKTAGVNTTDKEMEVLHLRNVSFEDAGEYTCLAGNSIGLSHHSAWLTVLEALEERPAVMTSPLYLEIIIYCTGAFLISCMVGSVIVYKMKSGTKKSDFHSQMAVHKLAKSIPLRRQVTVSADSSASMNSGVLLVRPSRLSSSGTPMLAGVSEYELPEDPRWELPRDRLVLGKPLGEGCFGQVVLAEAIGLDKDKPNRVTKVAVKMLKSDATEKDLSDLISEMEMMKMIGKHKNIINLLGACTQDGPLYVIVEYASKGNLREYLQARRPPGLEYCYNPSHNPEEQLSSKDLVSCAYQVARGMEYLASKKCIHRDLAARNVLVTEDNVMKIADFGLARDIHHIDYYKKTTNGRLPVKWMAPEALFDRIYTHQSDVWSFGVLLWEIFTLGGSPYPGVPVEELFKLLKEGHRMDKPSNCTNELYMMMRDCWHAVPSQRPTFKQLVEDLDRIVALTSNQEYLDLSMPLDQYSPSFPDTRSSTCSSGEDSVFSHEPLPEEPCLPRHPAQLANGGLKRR

B1: H2aM8832N (antibody, V domains shown)
VH: QVQLVESGGGVVQPGRSLRLSCAASGFTFSRYGMHWVRQAPGKGLEWVAVIWYDGTNKYYEDSLKGRFTISRDNSKNTLYLQMNSLRAEDSAVYYCARDQGKYIDYWGQGTLVTVSS
VL: AIQMTQSPSSLSASVGDRVTITCRTSQDIRNDLGWYQQKPGKVPNLLIYAASTLQSGVPSRFSGSGSGTDFTLTISSLQPEDFATYYCLQDYNYPFTFGPGTKVDIK
notes: mouse IgG2 Fc (H2aM prefix)
B1: in assay [1], the “IC50, inhibition of 10 nM mfFGF21” value amounted to 110 pM. Also, the “Maximum Inhibition (%) of 10 nM mfFGF21” value in assay [1] stood at 15%. In addition, the “binding ratio to unstained cells” value in assay [2] is 6 fold; in assay [3], 2 fold; in assay [4] it was 7 fold.

B2: H1M8115N (antibody, V domains shown)
VH: QVQLVQSGAEVKKPGSSVKVSCKASGGTFSTYEISWVRQAPGQGLEWMGGIIPVFGTTHYAQKFQDSVTITTDESTGTAFMELSSLKSEDTAVYYCARGGAGGDNWGQGTLVTVSS
VL: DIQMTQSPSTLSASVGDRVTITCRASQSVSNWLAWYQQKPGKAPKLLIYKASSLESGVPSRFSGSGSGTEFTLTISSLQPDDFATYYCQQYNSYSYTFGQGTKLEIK
notes: H1M Fc prefix (mouse Fc)
B2: the “IC50, inhibition of 10 nM mfFGF21” value in assay [1] came to 30 pM. Besides, the “Maximum Inhibition (%) of 10 nM mfFGF21” value in assay [1] was found to be 47%. Further, the “binding ratio to unstained cells” value stood at 2 fold in assay [2], 13 fold in assay [3] and 33 fold in assay [4].

B3: H1H8899P (antibody, V domains shown)
VH: EVQLVESGGGLVQPGGSLRLSCAASGFTFSSHWMSWVRQAPGKGLEWVANIKQDGSEKYYVDSVKGRFTISRDNAKNSLYLQISSLRAEDTAVYYCASNWNFLFDFWGQGTLVTVSS
VL: not shown
For B3, the “binding ratio to unstained cells” value is 5 fold in assay [2], 3 fold in assay [3] and 4 fold in assay [4].

B4: H2aM8109N (antibody, V domains shown)
VH: QVQVVESGGGVVQPGRSLRLSCAASGFTFSSYGLHWVRQAPGKGLEWVAVIWHDGSHKYYADSVKGRFTISRDNSKNTLYLQMNSLRAEDTAVYYCARDGIPVAEDYYFYGMDVWGQGTTVTVSS
VL: DIQMTQSPSSLSASVGDRVTITCRASQGIRNDLGWYQQKPGKAPKRLIYAASSLQSGVPSRFSGSGSGTEFTLTISSLQPEDFAIYYCLQHNSLTFGGGTKVEIK
notes: mouse IgG2 Fc (H2aM prefix)
B4: the “IC50, inhibition of 10 nM mfFGF21” value in assay [1] turned out to be 190 pM. Also, in assay [1], the “Maximum Inhibition (%) of 10 nM mfFGF21” value turned out to be 32%. Further, the “binding ratio to unstained cells” value is 7 fold in assay [2], 21 fold in assay [3] and 58 fold in assay [4].

B5: H1H8900P (antibody, V domains shown)
VH: QVQLVESGGGVVQPGRSLRLSCVASGFTFSSYGMHWVRQAPGKGLEWVAVISFDGSNKYYADSVKGRFTISRDNSKNTLYLQMNSLRPADTAVYYCAKDRSNYYYFGMDVWGQGTTVTVSS
VL: DIVMTQTPLSLPVTPGEPASISCRSSQSLLDSDDGNTYLDWYLQKPGQSPQLLIYTLSYRASGVPDRFSGSGSGTDFTLKISRVEAEDVGVYYCMQRIEFPLTFGGGTKVEIK
notes: H1H Fc prefix (human Fc)
On to B5, for which the “binding ratio to unstained cells” value in assay [2] stood at 5 fold; in assay [3], 1 fold; in assay [4], 6 fold.

B6: H2aM8093N (antibody, V domains shown)
VH: QVQLVQSGAEVKRPGSSVKVSCKASGDTFSTYAISWVRQAPGQGLEWMGGIIPVFGTTNYAQKFQDRVTITTDESTRTAYMELSSLRSEDTAVYYCAGIAGPDYWGQGTLVTVSS
VL: DIQMTQSPSSLSASVGDRVTITCRASQGIRNYLAWFQQKPGKAPKSLIYLATSLQSGVPSKFSGSGSGTDFTLTISSLQPEDFATYYCQQYYSYPWTFGQGTKVEIK
notes: mouse IgG2 Fc (H2aM prefix)
In the case of B6, the “IC50, inhibition of 10 nM mfFGF21” value in assay [1] was 26 pM. Moreover, the “Maximum Inhibition (%) of 10 nM mfFGF21” value in assay [1] was determined as 46%. Besides, the “binding ratio to unstained cells” value in assay [2] amounted to 1 fold; in assay [3], 15 fold; in assay [4], 41 fold.

B7: H2aM8092N (antibody, V domains shown)
VH: QVQLQESGPGLVKPSETLSLTCTVSGGSISSYYWSWIRQPPGKGLDWIGHIYYSGTTYYNPSLKSRVSISLDTSKNQFSLKLSSVTAADTAVYYCARHLRGYSSGREFDYWGQGTLVTVSS
VL: DIQMTQSPSSLSASVGGRVSLTCRASQSIFSYLNWYQQKPGKAPKLLIYAASNLQSGVPSRFSGSGSGTDFTLTISSLQPEDFATYSCQQSYNIPYTFGQGTKLEIK
notes: mouse IgG2 Fc (H2aM prefix); also called H2M8092N
Consider B7, for which, in assay [1], the “IC50, inhibition of 10 nM mfFGF21” value amounted to 220 pM. Moreover, the “Maximum Inhibition (%) of 10 nM mfFGF21” value in assay [1] was found to be 18%. Besides, the “binding ratio to unstained cells” value in assay [2] is 1 fold; in assay [3], 15 fold; in assay [4], 46 fold.

B8: H4H8859P (antibody, V domains shown)
VH: EVQLVESGGSVVRPGGSLRLSCAASGFTFDVYGMSWVRQAPGKGLEWVSGINWIGGSTGYADSVKGRFTISRDNAKNSLYLQMNSLRAEDTALYYCTREEDYWGQGTLVTVSS
VL: DVVMTQSPLSLAVTLGQPASISCRSSQSLVYSDGNTYLNWFQQRPGQSPRRLFYKVSNRDSGVPDRFSGSGSGTDFTLKISRVEAEDVGIYYCMQGIKWPLTFGGGTKVEIK
notes: human IgG4 Fc (H4H prefix)
With B8, the “binding ratio to unstained cells” value in assay [2] was determined as 5 fold; in assay [3] it was 5 fold; in assay [4] it was 4 fold.

B9: H4H8870P (antibody, V domains shown)
VH: EVQLVESGGGVVRPGGSLRLSCAASGFKFDVYGMSWVRQLPGKGLEWVSGISWTGGSSGYADSVKGRFTISRDNGKKSLYLQMNSLRAEDTALYYCTREEDYWGQGTLVTVSS
VL: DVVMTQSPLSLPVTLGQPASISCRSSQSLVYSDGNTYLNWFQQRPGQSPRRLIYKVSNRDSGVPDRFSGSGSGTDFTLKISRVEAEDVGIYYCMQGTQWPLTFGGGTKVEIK
notes: human IgG4 Fc (H4H prefix)
With B9, the “binding ratio to unstained cells” value in assay [2] turned out to be 5 fold; in assay [3] it was 4 fold; in assay [4], 4 fold.

B10: H2aM8091N (antibody, V domains shown)
VH: QVQLVQSGADMKKPGASVKVSCKASGYTFTTYGINWVRQAPGQGLEWMGWISAYSGITNYAQSFQGRVTMTTDTSTSTAYMELRSLRSDDTAVYYCARGGYNWATGDYFDYWGQGTLVTVSS
VL: DIQMTQSPSTLSASIGDRVTITCRASQSISSWLAWYQQKPGKAPKFLIYKASSLASGVPSRFSGSGSGTEFTLTISSLQPDDFATYYCQQYDSYSPYTFGQGTKVEIK
notes: mouse IgG2 Fc (H2aM prefix); also called H2M8091N
On to B10, for which the “IC50, inhibition of 10 nM mfFGF21” value in assay [1] stood at 2300 pM. Also, the “Maximum Inhibition (%) of 10 nM mfFGF21” value in assay [1] is 104%. Also, the “binding ratio to unstained cells” value was 1 fold in assay [2], 8 fold in assay [3] and 37 fold in assay [4].

B11: H2aM8098N (antibody, V domains shown)
VH: QLQLQESGPGLVKPSETLSLTCTVSGGSISSSNYYWDWIRQTPEKGLEWIGSIHYSGTSYYNPSLKSRVTISVDTSKNQFSLKLRSVTAADAAVYYCARQTSVYWYFDIWGHGTLVTVST
VL: EIVLTQSPGTLSLSPGEGATLSCRASQSVRNNYLAWYQQKPGQAPRLLIYGASSRAIGIPDRFSGSGSGTDFTLTISRLEPKDFVVYYCQQYGGSLFTFGPGTKVDIK
notes: mouse IgG2 Fc (H2aM prefix)
Turning to B11, the “binding ratio to unstained cells” value was found to be 1 fold in assay [2], 11 fold in assay [3] and 23 fold in assay [4].
